Substrate: [H][C@@]1(O[C@H]2[C@H](O)[C@@H](O)[C@H](Oc3ccc([N+](=O)[O-])cc3)O[C@@H]2CO)O[C@H](CO)[C@H](O)[C@H](O)[C@H]1O
Assay: p-nitrophenol release, Lineweaver-Burk
Type: biochemical, Aspergillus fumigatus
Conditions: 50 °C, 30 min, 25 mM citrate pH 5.0

B1: AfCel7A (Aspergillus fumigatus Af293) (protein)
chain: QQVGTSQAEVHPSMTWQSCTAGGSCTTNNGKVVIDANWRWVHKVGDYTNCYTGNTWDTTICPDDATCASNCALEGANYESTYGVTASGNSLRLNFVTTSQQKNIGSRLYMMKDDSTYEMFKLLNQEFTFDVDVSNLPCGLNGALYFVAMDADGGMSKYPTNKAGAKYGTGYCDSQCPRDLKFINGQANVEGWQPSSNDANAGTGNHGSCCAEMDIWEANSISTAFTPHPCDTPGQVMCTGDACGGTYSSDRYGGTCDPDGCDFNSFRQGNKTFYGPGMTVDTKSKFTVVTQFITDDGTSSGTLKEIKRFYVQNGKVIPNSESTWTGVSGNSITTEYCTAQKSLFQDQNVFEKHGGLEGMGAALAQGMVLVMSLWDDHSANMLWLDSNYPTTASSTTPGVARGTCDISSGVPADVEANHPDAYVVYSNIKVGPIGSTFNSGGSNPGGGTTTTTTTQPTTTTTTAGNPGGTGVAQHYGQCGGIGWTGPTTCASPYTCQKLNDYYSQCL
**Q.** What does the source list for B1?
**A.** Km: 128 ± 1 µM; kcat: 0.08055 ± 0.00033 s⁻¹

From doi:10.1101/2023.07.13.548902v1
